Earlier results in paper PMC3312455.
Several values for one entry are separate records, joined by “and”; a condition that tells them apart may be missing. Equal values may be shown once. Values belong to the substance of their own block, whether it stands above or below them.

Key:
Assay in all cases: SPR
[1] = target: FGFR2-IIIb ECD (Homo sapiens) (UniProt P21802)
[2] = target: FGFR1-IIIc D2-D3 (Homo sapiens) (UniProt P11362)
[3] = target: Neuropilin-1 ECD (Homo sapiens) (UniProt O14786)
[4] = target: VEGFR1/Flt ECD (Homo sapiens) (UniProt P17948)
[5] = target: PDGFRβ ECD (Homo sapiens) (UniProt P09619)
[6] = target: PDGFRα ECD (Homo sapiens) (UniProt P16234)
[7] = target: agrin (UniProt O00468)
[8] = target: FGFR1-IIIc D1-D3 (Homo sapiens) (UniProt P11362)
[9] = target: αvβ3 integrin receptor (Homo sapiens) (UniProt P06756)
[10] = target: c-MET ECD (Homo sapiens) (UniProt P08581)
[11] = target: FGFR3-IIIc D1-D3 (Homo sapiens) (UniProt P22607)
[12] = target: FGFR2-IIIb D2-D3 (Homo sapiens) (UniProt P21802)
[13] = target: FGFR1-IIIc ECD (Homo sapiens) (UniProt P11362)
[14] = target: FGFR3-IIIc D2-D3 (Homo sapiens) (UniProt P22607)

Chain of FGF2 (P09038 143-288): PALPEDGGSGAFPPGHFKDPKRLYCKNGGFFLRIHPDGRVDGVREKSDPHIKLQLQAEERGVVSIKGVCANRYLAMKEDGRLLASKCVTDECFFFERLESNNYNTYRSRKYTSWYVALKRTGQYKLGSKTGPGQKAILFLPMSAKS
Chain of FGFR2-IIIb ECD (Homo sapiens) (P21802 22-377): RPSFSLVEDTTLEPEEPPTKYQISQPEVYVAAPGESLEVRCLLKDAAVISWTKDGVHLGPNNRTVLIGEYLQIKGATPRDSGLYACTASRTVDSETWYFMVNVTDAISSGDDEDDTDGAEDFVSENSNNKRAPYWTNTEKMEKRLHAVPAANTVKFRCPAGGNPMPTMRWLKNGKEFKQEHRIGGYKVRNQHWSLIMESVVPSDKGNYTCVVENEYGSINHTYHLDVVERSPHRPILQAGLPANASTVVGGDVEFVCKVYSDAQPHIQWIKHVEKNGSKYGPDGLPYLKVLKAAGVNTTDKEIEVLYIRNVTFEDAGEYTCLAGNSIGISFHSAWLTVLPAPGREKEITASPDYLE
Chain of FGF1 (P05230 16-155): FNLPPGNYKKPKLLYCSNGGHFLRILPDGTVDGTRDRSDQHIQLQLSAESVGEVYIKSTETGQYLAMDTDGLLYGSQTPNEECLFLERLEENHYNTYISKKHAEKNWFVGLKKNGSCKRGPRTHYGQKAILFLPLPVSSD
Chain of VEGF-A165 (P15692 whole entry): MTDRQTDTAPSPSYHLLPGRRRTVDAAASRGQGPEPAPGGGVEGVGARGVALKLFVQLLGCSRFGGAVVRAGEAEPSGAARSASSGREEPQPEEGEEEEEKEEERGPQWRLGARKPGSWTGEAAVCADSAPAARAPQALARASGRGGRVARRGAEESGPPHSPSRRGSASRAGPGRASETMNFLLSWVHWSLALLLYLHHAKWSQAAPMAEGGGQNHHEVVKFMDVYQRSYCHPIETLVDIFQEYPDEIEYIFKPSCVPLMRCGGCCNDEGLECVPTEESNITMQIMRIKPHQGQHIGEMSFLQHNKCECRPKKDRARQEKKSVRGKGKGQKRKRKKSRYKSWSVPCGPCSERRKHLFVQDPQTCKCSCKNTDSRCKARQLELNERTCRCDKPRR
Chain of VEGFR1/Flt ECD (Homo sapiens) (P17948 27-758): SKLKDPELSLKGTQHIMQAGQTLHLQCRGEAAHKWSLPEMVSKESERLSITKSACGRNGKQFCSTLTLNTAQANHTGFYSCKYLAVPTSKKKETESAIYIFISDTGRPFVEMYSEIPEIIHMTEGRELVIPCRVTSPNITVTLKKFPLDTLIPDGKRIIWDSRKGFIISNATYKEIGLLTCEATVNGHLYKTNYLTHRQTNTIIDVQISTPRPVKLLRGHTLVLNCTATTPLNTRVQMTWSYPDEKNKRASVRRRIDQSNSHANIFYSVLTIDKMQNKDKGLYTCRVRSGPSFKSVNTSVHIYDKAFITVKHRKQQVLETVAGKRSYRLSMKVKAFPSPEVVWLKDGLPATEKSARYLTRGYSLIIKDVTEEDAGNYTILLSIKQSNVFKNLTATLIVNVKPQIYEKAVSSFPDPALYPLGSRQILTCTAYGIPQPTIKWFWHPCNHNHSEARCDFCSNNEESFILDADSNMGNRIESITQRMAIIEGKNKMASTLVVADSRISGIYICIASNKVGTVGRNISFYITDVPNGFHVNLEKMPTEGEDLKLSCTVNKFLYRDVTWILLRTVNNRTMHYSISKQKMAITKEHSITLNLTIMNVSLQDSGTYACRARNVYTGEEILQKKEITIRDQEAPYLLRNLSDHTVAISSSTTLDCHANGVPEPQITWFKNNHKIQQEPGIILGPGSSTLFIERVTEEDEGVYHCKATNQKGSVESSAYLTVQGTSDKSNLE
Chain of HGF (P14210 32-494): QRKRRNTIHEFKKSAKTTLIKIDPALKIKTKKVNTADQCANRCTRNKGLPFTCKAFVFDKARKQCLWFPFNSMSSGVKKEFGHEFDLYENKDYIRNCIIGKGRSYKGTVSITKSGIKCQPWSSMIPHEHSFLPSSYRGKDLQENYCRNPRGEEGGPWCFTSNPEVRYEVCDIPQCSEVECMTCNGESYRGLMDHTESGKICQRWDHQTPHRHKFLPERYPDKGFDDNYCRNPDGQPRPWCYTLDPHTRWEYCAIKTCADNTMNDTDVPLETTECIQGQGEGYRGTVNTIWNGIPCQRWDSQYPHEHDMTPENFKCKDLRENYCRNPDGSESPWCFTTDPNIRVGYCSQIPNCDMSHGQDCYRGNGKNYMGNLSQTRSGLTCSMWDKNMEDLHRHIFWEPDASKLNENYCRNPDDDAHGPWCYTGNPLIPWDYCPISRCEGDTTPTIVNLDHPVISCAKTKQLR
Chain of HGF (P14210 495-728): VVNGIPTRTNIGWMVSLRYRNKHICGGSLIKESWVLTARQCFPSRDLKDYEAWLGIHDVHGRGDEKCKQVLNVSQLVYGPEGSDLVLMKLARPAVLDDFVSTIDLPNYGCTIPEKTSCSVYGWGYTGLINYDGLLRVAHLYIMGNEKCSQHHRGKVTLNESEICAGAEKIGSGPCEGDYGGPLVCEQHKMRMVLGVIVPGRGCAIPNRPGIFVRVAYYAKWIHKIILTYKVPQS
Chain of c-MET ECD (Homo sapiens) (P08581 25-932): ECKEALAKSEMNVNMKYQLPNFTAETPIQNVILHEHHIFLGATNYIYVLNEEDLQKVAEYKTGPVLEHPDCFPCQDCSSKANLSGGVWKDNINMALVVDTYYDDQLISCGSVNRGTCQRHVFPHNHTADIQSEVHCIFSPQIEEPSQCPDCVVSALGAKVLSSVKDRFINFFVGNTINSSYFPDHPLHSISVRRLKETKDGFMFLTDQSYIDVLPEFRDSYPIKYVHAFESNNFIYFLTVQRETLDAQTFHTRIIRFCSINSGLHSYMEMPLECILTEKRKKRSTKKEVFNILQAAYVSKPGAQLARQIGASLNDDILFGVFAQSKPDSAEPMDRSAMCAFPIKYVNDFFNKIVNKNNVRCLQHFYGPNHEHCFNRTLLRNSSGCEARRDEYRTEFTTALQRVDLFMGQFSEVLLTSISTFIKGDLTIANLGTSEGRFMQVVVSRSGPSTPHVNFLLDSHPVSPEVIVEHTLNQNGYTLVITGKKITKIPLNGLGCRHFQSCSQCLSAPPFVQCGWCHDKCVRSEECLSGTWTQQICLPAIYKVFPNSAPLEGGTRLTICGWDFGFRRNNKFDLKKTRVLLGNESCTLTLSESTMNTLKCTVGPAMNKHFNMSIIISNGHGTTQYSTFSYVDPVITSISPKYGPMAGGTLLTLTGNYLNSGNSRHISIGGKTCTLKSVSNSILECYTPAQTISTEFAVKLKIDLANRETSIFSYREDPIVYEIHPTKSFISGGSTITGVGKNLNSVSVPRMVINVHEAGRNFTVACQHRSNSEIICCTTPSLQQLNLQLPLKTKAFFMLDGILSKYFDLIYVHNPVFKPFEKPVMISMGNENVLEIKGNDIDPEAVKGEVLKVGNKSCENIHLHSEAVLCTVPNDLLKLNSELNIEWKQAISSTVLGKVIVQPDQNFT
Chain of FGF4 (P08620 31-206): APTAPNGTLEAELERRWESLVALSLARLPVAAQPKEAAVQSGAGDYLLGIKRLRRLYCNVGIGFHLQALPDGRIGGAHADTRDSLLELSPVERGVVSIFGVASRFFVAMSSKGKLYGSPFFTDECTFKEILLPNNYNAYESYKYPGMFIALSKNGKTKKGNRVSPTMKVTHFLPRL
Chain of PDGFRα ECD (Homo sapiens) (P16234 24-528): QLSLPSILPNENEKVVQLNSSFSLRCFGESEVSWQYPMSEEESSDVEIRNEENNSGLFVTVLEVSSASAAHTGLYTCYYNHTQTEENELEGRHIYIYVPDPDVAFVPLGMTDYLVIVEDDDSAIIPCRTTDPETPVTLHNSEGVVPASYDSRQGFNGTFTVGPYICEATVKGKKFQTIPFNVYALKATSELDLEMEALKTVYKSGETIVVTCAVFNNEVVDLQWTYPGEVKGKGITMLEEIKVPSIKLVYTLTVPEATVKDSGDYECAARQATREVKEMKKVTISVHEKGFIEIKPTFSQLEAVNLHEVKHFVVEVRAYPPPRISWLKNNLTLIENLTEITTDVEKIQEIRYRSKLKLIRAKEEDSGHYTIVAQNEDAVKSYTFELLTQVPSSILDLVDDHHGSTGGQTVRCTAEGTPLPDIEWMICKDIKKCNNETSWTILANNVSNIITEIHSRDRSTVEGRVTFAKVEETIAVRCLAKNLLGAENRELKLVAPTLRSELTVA
Chain of FGFR1-IIIc D2-D3 (Homo sapiens) (P11362 142-365): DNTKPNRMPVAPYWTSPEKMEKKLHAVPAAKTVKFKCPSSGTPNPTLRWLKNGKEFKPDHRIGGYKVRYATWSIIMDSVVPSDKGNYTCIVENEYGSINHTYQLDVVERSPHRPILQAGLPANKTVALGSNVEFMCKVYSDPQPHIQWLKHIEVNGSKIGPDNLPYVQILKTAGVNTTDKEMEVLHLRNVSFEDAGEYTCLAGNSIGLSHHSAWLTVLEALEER
Chain of FGFR1-IIIc ECD (Homo sapiens) (P11362 22-376): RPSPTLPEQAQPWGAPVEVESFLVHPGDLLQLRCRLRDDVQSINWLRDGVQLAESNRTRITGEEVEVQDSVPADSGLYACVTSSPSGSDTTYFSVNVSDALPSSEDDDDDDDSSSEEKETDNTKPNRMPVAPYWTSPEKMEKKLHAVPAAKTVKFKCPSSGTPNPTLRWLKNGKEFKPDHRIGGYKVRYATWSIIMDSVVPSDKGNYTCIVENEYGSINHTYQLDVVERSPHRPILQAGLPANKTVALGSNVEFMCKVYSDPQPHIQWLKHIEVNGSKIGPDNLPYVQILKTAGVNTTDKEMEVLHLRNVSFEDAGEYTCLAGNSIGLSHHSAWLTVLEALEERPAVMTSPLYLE
Chain of PDGF-BB (P01127 82-190): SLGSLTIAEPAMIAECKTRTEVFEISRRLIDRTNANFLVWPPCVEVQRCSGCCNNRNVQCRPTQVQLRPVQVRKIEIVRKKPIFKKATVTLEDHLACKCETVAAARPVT
Chain of HIV-Tat (P04326 whole entry): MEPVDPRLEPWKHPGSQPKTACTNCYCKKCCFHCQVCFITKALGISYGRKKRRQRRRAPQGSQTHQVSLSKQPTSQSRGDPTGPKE

Substance: FGF4 (from UniProt P08620)
Kd [1]: 0.42 nM
Kd [2]: 165 nM

Substance: FGF2 (from UniProt P09038)
Kd [1]: 0.5 nM
Kd [2]: 62 nM
Kd [7]: 2.5 nM
Kd [8]: 99 nM

Substance: PDGF-BB (from UniProt P01127)
Kd [6]: 150 nM

Substance: HIV-Tat (from UniProt P04326)
Kd [9]: 32 nM

Substance: HGF (from UniProt P14210)
Kd [10]: 50 nM and 90 nM

Substance: FGF1 (from UniProt P05230)
Kd [1]: 0.8 nM
Kd [9]: 1100 nM
Kd [11]: 916 nM
Kd [12]: 59.6 nM
Kd [13]: 35 nM
Kd [14]: 230 nM

Continued, values first:

Kd [3]: 2000 nM
Kd [4]: 0.007 nM and 0.03 nM
Substance: VEGF-A165 (from UniProt P15692)

Kd [5]: 453 nM
Kd [6]: 13.4 nM
Substance: PDGF-AA (from UniProt P04085)
